Laboratory results taken from publication PMC10853514, “Autoinhibition and activation of myosin VI revealed by its cryo-EM structure” (Nature Communications, 2024).

Assays:
[1] = biological target: T1, myosin VI motor domain (MD), aa 1-789 (human, UniProt Q9UM54-1 1-789); assay: SEC; analytical SEC at 16 °C in PB (20 mM Na2HPO4/NaH2PO4 pH 7.4, 60 mM NaCl, 1 mM EGTA, 2 mM DTT, 2 mM MgCl2); 3.0 μM of the MD and CBD1 proteins; settings: both partners purified
T1 construct: myosin VI, human, motor domain aa 1-789; The methods say that myosin VI or its mutants were co-transfected with CaM; also called the MD; source: HEK293-F (pCAG vector), purified

[2] = biological target: T2, calmodulin (CaM), light chain of myosin VI (UniProt P0DP23 1-149); assay: cryo-EM structure; single-particle cryo-EM of myosin VI/CaM in PB, TB + AMPPNP and PB + ATP, the three datasets combined; autoinhibited state, 3.54 Å (4.14 Å map with the SAH-E); settings: both partners purified
T2 construct: calmodulin, the light chain of myosin VI; Two copies stand in the structure: CaM1 on Insert2 (with four Ca2+ ions) and CaM2 on the IQ motif; also called CaM1; CaM2; source: HEK293-F, co-transfected with myosin VI, co-purified

B1: myosin VI cargo-binding domain 1 (CBD1), aa 1072-1158 (domain or fragment, human, UniProt Q9UM54-1 1072-1158, looked up)
chain: TKKYDLSKWKYAELRDTINTSCDIELLAACREEFHRRLKVYHAWKSKNKKRNTETEQRAPKSVTDYDFAPFLNNSPQQNPAAQIPAR
notes: myosin VI, human, CBD1 aa 1072-1158, numbers of the form with LI and SI; also called the CBD1; source: E. coli BL21(DE3), purified (Ni-NTA, size exclusion)
Question: Does B1 bind [1]?
Answer: binds

B2: human myosin VI heavy chain, full length, containing both the large-insertion (LI) and small-insertion (SI) regions (natural protein)
chain: MEDGKPVWAPHPTDGFQMGNIVDIGPDSLTIEPLNQKGKTFLALINQVFPAEEDSKKDVEDNCSLMYLNEATLLHNIKVRYSKDRIYTYVANILIAVNPYFDIPKIYSSEAIKSYQGKSLGTRPPHVFAIADKAFRDMKVLKMSQSIIVSGESGAGKTENTKFVLRYLTESYGTGQDIDDRIVEANPLLEAFGNAKTVRNNNSSRFGKFVEIHFNEKSSVVGGFVSHYLLEKSRICVQGKEERNYHIFYRLCAGASEDIREKLHLSSPDNFRYLNRGCTRYFANKETDKQILQNRKSPEYLKAGSMKDPLLDDHGDFIRMCTAMKKIGLDDEEKLDLFRVVAGVLHLGNIDFEEAGSTSGGCNLKNKSAQSLEYCAELLGLDQDDLRVSLTTRVMLTTAGGTKGTVIKVPLKVEQANNARDALAKTVYSHLFDHVVNRVNQCFPFETSSYFIGVLDIAGFEYFEHNSFEQFCINYCNEKLQQFFNERILKEEQELYQKEGLGVNEVHYVDNQDCIDLIEAKLVGILDILDEENRLPQPSDQHFTSAVHQKHKDHFRLTIPRKSKLAVHRNIRDDEGFIIRHFAGAVCYETTQFVEKNNDALHMSLESLICESRDKFIRELFESSTNNNKDTKQKAGKLSFISVGNKFKTQLNLLLDKLRSTGASFIRCIKPNLKMTSHHFEGAQILSQLQCSGMVSVLDLMQGGYPSRASFHELYNMYKKYMPDKLARLDPRLFCKALFKALGLNENDYKFGLTKVFFRPGKFAEFDQIMKSDPDHLAELVKRVNHWLTCSRWKKVQWCSLSVIKLKNKIKYRAEACIKMQKTIRMWLCKRRHKPRIDGLVKVGTLKKRLDKFNEVVSVLKDGKPEMNKQIKNLEISIDTLMAKIKSTMMTQEQIQKEYDALVKSSEELLSALQKKKQQEEEAERLRRIQEEMEKERKRREEDEKRRRKEEEERRMKLEMEAKRKQEEEERKKREDDEKRIQAEVEAQLARQKEEESQQQAVLEQERRDRELALRIAQSEAELISDEAQADLALRRNDGTRPKMTPEQMAKEMSEFLSRGPAVLATKAAAGTKKYDLSKWKYAELRDTINTSCDIELLAACREEFHRRLKVYHAWKSKNKKRNTETEQRAPKSVTDYDFAPFLNNSPQQNPAAQIPARQREIEMNRQQRFFRIPFIRPADQYKDPQSKKKGWWYAHFDGPWIARQMELHPDKPPILLVAGKDDMEMCELNLEETGLTRKRGAEILPRQFEEIWERCGGIQYLQNAIESRQARPTYATAMLQSLLK
notes: myosin VI, human, full length with both the alternatively spliced LI and SI regions; codon-optimised synthetic gene; also called the heavy chain; source: HEK293-F, co-transfected with CaM, purified (Flag resin, size exclusion)
Question: Does B2 bind [2]?
Answer: binds
